Laboratory results reported in paper PMC5428233, “Cross-beta nanostructures based on dinaphthylalanine Gd-conjugates loaded with doxorubicin” (Scientific Reports, 2017).

Key:
Format in all cases: physicochemical
[1] = Aggregation by 1D 1H NMR at increasing concentration; details: H2O/D2O 90/10 v/v
From the text: This trend was also confirmed by ^1HNMR measurements (see Figure S4). We have recently analyzed the conformational properties of DOTA-L6-F4 in aqueous solution by mono- and multi-dimensional, homo- and hetero-nuclear NMR techniques. In the present work we have used a similar approach and thus implemented 1D [^1H] and 2D [^1H, ^1H] NMR spectroscopy to study two different compounds: DOTA-L6-F2 and 2Nal2 analogue in absence and in presence of the DOTA coordinated metal ion lanthanum (III), La. We used lanthanum (III) since it gives rise to a NMR “easy to handle” diamagnetic complex. Both DOTA-L6-F2 and 2Nal2 present low aggregation propensities. […] In detail by comparing spectra recorded at 0.3 mg/mL and 5.0 mg/mL chemical shift changes appear relevant in the spectral regions between 8.0 and 8.2 ppm, where signals from HN amide protons are present and between 3.0 and 3.5 ppm where several peaks overlap (Table S1). […]
NMR experiments were acquired in the temperature range of 298–303 K on either a Varian Unity Inova 600 MHz spectrometer provided with a cold probe or a 400 MHz Varian instrument provided with a 5-mm triple resonance probe and z-axis pulsed-field gradients. […] The DOTA-L6-F2 was analyzed in the concentration range 0.3 mg/mL (i.e., 0.3 mM)–5.0 mg/mL (i.e., 4.8 mM); for the La-DOTA-L6-F2 the examined concentration range was 0.3 mg/mL (i.e., 0.3 mM)–10.0 mg/mL (i.e., 8.5 mM). […]

[2] = Transmission electron microscopy of self-assembled conjugates; details: 5.0 mg/mL solution dried on grid, phosphotungstic acid stain
Protocol: Self-assembled peptide conjugate at 5.0 mg/mL, as free base or as metal complex, was initially characterized using TEM. […] The presence of a diffraction pattern both in SAXS and in WAXS is fingerprint of a hierarchical organization of the molecules in fibers from the atomic to the nanoscale.
TEM images were acquired by LaMest (Pozzuoli, Italy) with a FEI TECNAI G12 Spirit-Twin microscope (LaB6 source) endowed of a bottom mounted FEI Eagle-4k CCD camera (Eindhoven, The Netherlands), working at 120 kV.

[3] = Self-aggregation by intrinsic naphthyl fluorescence (intensity decrease, excimer peak); details: water, room temperature, excitation 280 nm
Protocol: Self-organization of the peptide conjugates at the atomic level was further characterized also in solution with fluorescence, UV-Vis, ^1HNMR, CD and FTIR spectroscopies. […] From ispection of Fig. 1b, the typical emission spectrum of the 2-naphthyl group with three maxima at 325, 340 and 355 nm, respectively, can be detected.
The determination of CAC (critical aggregate concentration) values was determined as previously described[6] by the titration of the fluorescent probe ANS (8-anilino-1-naphthalene sulfonic acid ammonium salt)[28], [29] with the peptide conjugates[30].

[4] = Water proton relaxation measurements / NMRD profiles; details: aqueous solution, 298 K
From the text: The paramagnetic relaxivity (r1p) of Gd (III) complexes is given by:1 r1p∝1/T1MH=Kf(τR) where K is a constant related to the strength of the dipolar interaction between the protons and the electronic magnetic moment, and τR is the correlation time associated with the reorientation of the Gd-H magnetic vector. This means that slowly moving high molecular weight systems are endowed with higher relaxivity than rapidly reorienting low molecular weight ones. In the case of self assembling Gd-containing systems, the extent of aggregation may be evaluated through the measure of the water proton longitudinal relaxation rate of its aqueous solution. In Fig. 8 are reported the NMRD (Nuclear Magnetic Resonance Dispersion) profiles of Gd-2Nal2 acquired at 21.5 MHz (0.5 T) and 298 K as a function of the complex concentration. […] At concentrations higher than 10–15 mg/mL the relaxivity assumes an almost stable value which corresponds to the system in the completely aggregated form. By analyzing the profile of the relaxivity data as a function of the applied field strength (NMRD - Nuclear Magnetic Relaxation Dispersion) it is possible to obtain an accurate determination of the reorientational correlation time (τR)[16], that is strictly related to the molecular size of the investigated system. NMRD profiles were acquired below (black circles) and above (white ones) the CAC values determined by ANS titration and ^1HNMR. […] Data were analyzed using the Solomon-Bloembergen-Morgan model, [18], considering one water molecule in the inner coordination sphere (q = 1) and fixing the exchange lifetime (τM) to a reliable value ([…]) on the basis of those previously reported for mono-amido DOTA derivatives[19]–[22]. The quantitative analysis of the NMRD profile of the aggregated form was not satisfactory when the simple inner- outer-sphere model was used, so the Lipari-Szabo approach was used for the description of the rotational dynamics. This model allows one to take into account the presence ofa certain degree of internal rotation superimposed on the overall tumbling motion, [24]. These two types ofmotion, a relatively fast local rotation of the coordination cage about the linker to the peptide scaffold superimposed on the global reorientation of the system, are characterized by different correlation times: τR ^l and τR ^g, respectively. The degree of correlation between global and local rotations is given by the parameter S^2, which takes values between 0 (completely independent motions) and 1 (entirely correlated motions).
Measure of R1 (longitudinal water proton relaxation rates) of Gd-2Nal2 were carried out on a Stelar Spinmaster spectrometer (Pavia, Italy) operating at 0.5 T which corresponds to 21.5 MHz Proton Larmor Frequency. R1 (1/T1) values were measured at 298 K by mean of the standard inversion-recovery technique. For the measure of the proton 1/T1 NMRD (Nuclear Magnetic Resonance Dispersion) profiles, a fast field-cycling Stelar relaxometer, operating over a continuum of magnetic field strengths from 0.00024 to 0.47 T (corresponding to 0.01–20 MHz proton Larmor frequencies) was used. The temperature was set at 298 K. The relaxometer is computer controlled and the absolute uncertainty is 1/T1 ± 1%. Additional data points were obtained on a Stelar Spinmaster spectrometer coupled to an electromagnet tunable at different Larmor Frequencies between 21.5 and 70 MHz. Experimental temperature control was obtained with an air-flow heater (Stelar VTC-91) endowed of a copper constantan thermocouple (uncertainty 0.1 °C). A previously reported relaxometric method[39] was used for the determination of the concentrations of the solutions used for the relaxometric characterization. The conventional Solomon-Bloembergen-Morgan theory was used for fitting of experimental data.

DOTA-L6-(2Nal)2 [2Nal2]
aggregation propensity by 1H NMR (in words) ([1]; 2Nal2 0.1-5.0 mg/mL, La-DOTA-L6-F2 0.3-10.0 mg/mL): cannot reveal significant aggregation
supramolecular aggregation / morphology in TEM images [2]: long fibrillary nanostructures
concentration of appearance of the excimer peak (380-430 nm) / formation of stable aggregates [3]: above 2.0 mg/mL
concentration at which self-aggregation begins (decrease of fluorescence intensity) ([3]; 0.025-20.0 mg/mL range): 200 to 500 µg/mL

DOTA-L6-F2 [reference compound]
concentration at which aggregation appears in 1H NMR spectra (spectral changes / line broadening) ([1]; 298-303 K): higher than 1.2 mg/mL

Gd-DOTA-L6-F2 [reference compound]
r1p (longitudinal proton relaxivity) ([4]; complex at 1 mg/mL): 5.7 mM⁻¹ s⁻¹
r1p (longitudinal proton relaxivity) ([4]; complex at 25 mg/mL (nanoaggregates), text: at 20 MHz): 6.0 mM⁻¹ s⁻¹
